The supplement of paper PMC12764529
± gives the half width of the 95% confidence interval.

Legend:
[1] = folding stability dG unfold from chymotrypsin proteolysis; higher = more stable
Experimental: (§1)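 Folding stability of de novo designed mini-proteins (<80 aa, no Cys; designed by TrROS, TrMRF, ProteinMPNN and the joint model) was measured by cDNA display proteolysis with trypsin and chymotrypsin. Each protease was used at 11 concentrations in a threefold dilution series plus a no-protease condition. K50 was inferred by Bayesian fitting of sequencing counts, and dG unfold was derived against a sequence-predicted unfolded-state K50 (Tsuboyama et al. method). Sequences shown include variable-length N-terminal GS-type padding (SAGGSAGG...) inside a display construct carrying a PA tag. Rows were kept only if the AF2 dimer inter-PAE was >15, to exclude likely homo-oligomers.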

[2] = folding stability dG unfold (combined trypsin and chymotrypsin); higher = more stable
Experimental: as §1

Row | Sequence | folding stability dG unfold [1] [kcal/mol] | folding stability dG unfold [2] [kcal/mol]
1 | AARSVDVEVEELSTVTPAGGRTRLLRVRAYVPETGRTAEVPYRAVLLPDGSERPFGTAEELADRIARLLVSS [r1_77_TrMRF] | 0.182 ± 0.17 | -0.0373 ± 0.12
2 | PPVGPDAPVTPTTTPTPSGKTVTTTDRPLRREVTTTDPSTGTYTVTLTETDAAGRVLATRTETLSPEEVAAS [r1_380_JUSTAS] | -0.0788 ± 0.36 | -0.541 ± 0.31
3 | QIPPGAKVEFGNKEIEVPPGKELMIFNGHIMTQDDMEDMMKNMPDGMEMYRYKVEDNKGKIDKVRRMRMKPS [r1_304_TrROS] | -0.102 ± 0.57 | < -1
4 | SAAKPVVIEVGFDGKPVTVVVYPNPGRVRAYVPATNAVSEATVGEDGEVNLLLYNPADGKPLPANITVPSAG [r14_656_TrMRF] | -0.973 ± 0.39 | < -1
5 | SADKEAVRKIAEKFMQEPGFEPRGISPDGHIMFRPPGQGRMYRIDIDVEKDNDGLDVKIPDIEPVPMPDSAG [r14_20_TrROS] | -0.0277 ± 0.31 | < -1
6 | SAGDIEIEVEELGEGYKKITIRIKVDSIEEAIKEVEEIVRDFFSEEAEIVEIKIDPEKGIVEAVVIVPESAG [r5_810_TrMRF] | 3.39 ± 0.4 | –
7 | SAGDYDVEKDPDGYRVEHKNGDKRYVPPVPPPIPVVMIPIKDPEDLDEFANELGLNITDISDDWITMPASAG [r5_328_TrROS] | 0.422 ± 0.13 | -0.158 ± 0.27
8 | SAGGAKVTEVKVENGYVTVTVDGKLVAKAPPPPPPPKVRVRNADGEEEERSLEDLLAENPENLEIELESAGG [r13_802_TrROS_Hall] | 0.359 ± 0.1 | -0.0384 ± 0.28
9 | SAGGAPDIPILTASYSPDGVLYSSTTTPINGTLHYFPEDNPVVLATDPATGLTVPVGTLEDVKRLIASAGGS [r8_232_TrMRF] | 0.208 ± 0.14 | -0.37 ± 0.19
10 | SAGGAPIPTVSTRTTPLPGGSSRTTTTTTYTFPETGTVYTATTTTTASPGGSPTTTATTTTTALAAASAGGS [r16_113_JUSTAS] | 0.0663 ± 0.26 | -0.507 ± 0.23
11 | SAGGAPLAERTEPLPDGRTVRRVLEYDPEKRTVRVRTERWAPDGAAEPAEEVLDVPESATSPEFLLASAGGS [r8_461_JUSTAS] | -0.606 ± 0.21 | < -1
12 | SAGGAPVHLDTTATTIEPLPTGGPVLRVETRFPDGSTRTGDFASREELLARLEASPDAATIRLAAVASAGGS [r16_757_JUSTAS] | 0.896 ± 0.056 | 0.203 ± 0.096
13 | SAGGDARVARARIRLTRPFPDEDGVVRWEPVVPPGDPVEVGLVLEDDTLVANAVFDGRPVLATVRLESAGGS [r16_500_TrMRF] | -0.407 ± 0.27 | < -1
14 | SAGGDPEEQNKMMERMEKMKPIEPEPVRIPNGIEIEYWPAYGFVEIETWYRDPDGEPKPIGEGWVPVSAGGS [r16_243_TrROS] | 0.286 ± 0.094 | -0.147 ± 0.12
15 | SAGGEPGVSAEEAAERLRRELGLPGLERVLEVRLTRAVGDPAGRPPEAESLEVEVEVSPEVRERLAALSAGG [r13_552_JUSTAS] | 0.599 ± 0.051 | 0.00798 ± 0.068
16 | SAGGEPRLGRVLLDIDIAVDPERAEREEDREEALERALEIAERAEARLRELDPDVPVVVNIRLLDVGSAGGS [r8_183_TrMRF] | 0.576 ± 0.031 | 0.31 ± 0.17
17 | SAGGEVPVSAEAAAAYDRAVAEGGGGATVPVETPGGRVIVYDPAGTATVLGDDPRTFPLAEVTAFAPSAGGS [r16_664_JUSTAS] | 0.923 ± 0.059 | 0.246 ± 0.072
18 | SAGGGMGSSMKAKVEEEIPELKAADSTKVEITVTVTETRSFALPGGELATTTTTTTKTLEVEVPEEESAGGS [r8_203_JUSTAS] | 0.208 ± 0.26 | -0.217 ± 0.34
19 | SAGGGMSLTTTTLTFSIDEVDPEELYEELSKKGVTVYSGGKPSNPEEGMEALLKAHPNSSYTVLTRLSAGGS [r8_38_JUSTAS] | -0.483 ± 0.54 | < -1
20 | SAGGGPMPKPVEEVVEEEEDGLRVTTRITYLPTSSTTVVRTTRTVFDPRNGRPLETEELTETVPPGSSAGGS [r16_709_JUSTAS] | -0.0368 ± 0.23 | -0.181 ± 0.22
21 | SAGGGSKVIKVEYEKKDGGKVFIDDITDPGDSVEASIFNPKTGVKIPLPFDKLEELEDFIKEFVDKYSAGGS [r16_736_TrMRF] | -0.154 ± 0.32 | < -1
22 | SAGGGSMYDPETGTLRDENGNFFRTEEKKIPEVVIELPIELPDNTTLVIPVKFRTEEEAEKAVEELLSAGGS [r8_440_JUSTAS] | 0.0268 ± 0.23 | -0.191 ± 0.33
23 | SAGGGVTLTVDVRSKSGGSPEKFTLTLPVAVDPAGSADLDAARAAVAAALPPEAEVLELSLLPPDVPASAGG [r13_504_JUSTAS] | 0.346 ± 0.17 | < -1
24 | SAGGKKEYKILITGKSIPSDGIVYLPNPNKVNIKSNNNYTYKTIPITIIADNNPEKAKKIAKELGLGSAGGS [r16_467_TrMRF] | 0.232 ± 0.34 | < -1
25 | SAGGKKKKREIEIQIPVPDEEMKKNGMDPSEFAEELAKELQSLLPPGFEDIDLDVEPHPNGWPRIKIESAGG [r13_271_TrROS] | -0.281 ± 0.043 | -0.724 ± 0.3
26 | SAGGKKTVEIPIWMPYDDAKNIAKEAVEEAAASNDNVTVTIEIWQWEPDPNGKPEWQPIGKAEIKVPPSAGG [r13_974_TrROS] | -0.013 ± 0.064 | -0.43 ± 0.19

Row | Sequence | folding stability dG unfold [1] [kcal/mol] | folding stability dG unfold [2] [kcal/mol]
27 | SAGGKPKITITIEKLPDGTIRITITYEDGSKVEIEAKVTYDPKTNTLTIEVTIKINGKTYKITITFKSAGGS [r16_391_TrROS_Hall] | 4.4 ± 0.29 | 4.35 ± 0.68
28 | SAGGKSKTIPIQPGDIRKVRDQLKELPDEGDNVRIHNPDNGKEREMDPDQLDDNVEKNGEPPTIHVRSAGGS [r16_263_TrROS] | -0.528 ± 0.072 | < -1
29 | SAGGLVREAAAEAGATGVDIREEVPDPNGGTVVTVLPRPGLSPEEAAAVRARIEAAIAEREPGATVVLESAG [r5_101_JUSTAS] | 0.161 ± 0.029 | -0.142 ± 0.11
30 | SAGGMEEIRELLREGKIDEVVERLKELGYEDVKITPIPDKPVVKIEVVRYDPVTGKPTKFTLTIPLEPSAGG [r13_359_TrMRF] | 5.27 ± 0.11 | 5.67 ± 0.32
31 | SAGGSAGGSAGGKTITLDELRENFPPGYQIRDNNGKQHRINANEPIEEGDPIEIVSKDDISAGGSAGGSAGG [r7_507_TrROS] | -0.206 ± 0.17 | –
32 | SAGGSAGGSAGGPVIPKDVKVKVIFSNGEVAELEVDSVDDLQKKLNVPIPPNVNLVVSRGSAGGSAGGSAGG [r7_223_TrMRF] | -0.759 ± 0.37 | –
33 | SAGGSAGGSAGGSMVITIEYTGSVEDLIKKLKEEGLDVKVLEVKFDPKTGKYTVTLEVKSAGGSAGGSAGGS [r4_315_JUSTAS] | 4.22 ± 0.2 | –
34 | SASVVDLETDGSMSVEEVVERFKKENPNVKEVKVTTEALPDEPKYRITLTITEDKGKTEENLKKTKELKSAG [r14_645_JUSTAS] | – | < -1
35 | SATTTTETLPDGGVLTTTTLPDGSPATGLIDPANGAPFTATHPNGLRTVWSQSPSGKVTTLSTTNVPPSSAG [r14_877_JUSTAS] | – | < -1
36 | SDEVSRPVDVRYYITLTEPPTSRPRRGPTDELEVESERPVTVTEMPAGQEEAVRAELEPRGVAVSVTPVVSA [r9_1209_JUSTAS] | – | < -1
37 | SFKLPEGEEREFRLPDVPIEIEVDDGPGMIKINIYPPENPGKPVFEHEVPPGEIKPIEIPPELRDAMKKQSA [r9_1051_TrROS] | – | < -1
38 | SIEITFRHDNYRVPVKIDPDDPKIKIEVYPDPENGEMQPLTEEDMENFAQEIADELREQRKQQRKEGKPPSA [r9_368_TrROS] | – | < -1
39 | SKSRPIEVEFRMPYPNGGPMRMRATVLINPDNGKIGIPMRMETPGKEREYPLPPSMMNNLAKTVLDKLGLSA [r9_1136_TrROS] | – | -0.789 ± 0.81
40 | SLEELAKAIAEKLGLPVEDVEVRVEKEVDEETGEERLRVTVLIKVDGKTYLIEIDLETGEIVEIKPLEDLSA [r9_1219_TrROS_Hall] | 4.68 ± 0.23 | –
41 | SMTVITAEPNLPPEKKAAVEAVRERVKANPDKPMDADEIKEFIKEEFGDPNFTILKVTIIPKAPPVVALSSA [r9_620_JUSTAS] | – | < -1
42 | SNMPIFVRIEHNDGKEVEIPIKGSREQLKDNIQEEIQEYAQENGHKPRSIKVEVYDFGNNQEQTRTIPVKSA [r9_1193_TrROS] | – | < -1
43 | SNTIMIMANVPPGPVRIKIEPKNGRRYEMPIPPGEPVMFHIPIPPGLPPGNKWKIEVENPDNGKEQEKDFSA [r9_275_TrROS] | – | < -1
44 | SPNVRPYNFKIRDPNKEIEVPVWQPPDGPPMVNIKFKDPGKEVEIPFPMDDPEELLEDFAPDGYKIELTWSA [r9_384_TrROS] | – | < -1
45 | SPTLPFPFPDGHPYMIHLNPEKNEIHIHNPESGRPYRIKVPGGKERRIPAGADSLDELKDLPPLKIEPMPSA [r9_205_TrROS] | – | < -1
46 | SSAEEVARARFEAAGWDWRPLARDPVKRTVRFEVRPPDRPPRLYEVVVDPSRDTVNLEEDPATGRVVVPGSA [r9_1119_JUSTAS] | – | < -1
47 | SSDDKEEQKKRQKAQAKPKPKMEPVWVPIEVRDPDNGRPFEIPVRMYRTPNGKIEPLPEEELKDWAKDLFSA [r9_1056_TrROS] | – | < -1
48 | SSVKIEEKPLPDGTILVTITTPPENPEEVAEKVKEEVKAPVTVTSVEEVELEEGEKPLKVVKITIEVDKASA [r9_431_JUSTAS] | – | < -1
49 | SSVNWKVLETKEEPETVVTLLENPENPELIVEVPVKRFEDPDSERREVTKTVWLPATGETLETEPAVIPLSA [r9_18_JUSTAS] | – | < -1
50 | STLENIEYIKLPKNKTLPLPGGETISPDEEIAIDLDKKKYINKEELEELKKKIEEELEKKKPKENPKNLISA [r9_517_JUSTAS] | – | < -1
51 | SYPRDPSGKITAKITITRDPDGIYRAEIDVVDKDNKPLARASAPYENPYPGVARLKEEAEALAEELEKKKSA [r9_739_TrMRF] | – | < -1
